Reference: US9321838B2, “Therapy targeting cathepsin S” (Fusion Antibodies Limited, priority 2006, dated 2016)

Legend:
[1] = molecular target: T1, CatS on the cell surface of HCT116 cells (Homo sapiens, UniProt P25774); assay: flow cytometry staining of HCT116 cells with CatS monoclonal antibody; type: binding; settings: HCT116 cells stained for CatS
T1 construct: CatS expression is localised to the cell surface on HCT116 cells; endogenous in cells; host or cells: HCT116
Procedure: Cells were collected from tissue culture plates using a scraper and washed ×3 in PBS (0.01% tween) (5 minute centrifugation at 1500 rpm). Approximately 5×10^5 cells were placed in appropriately labelled tubes. Cells were incubated with 50 μl anti-CatS or Isotype control (Sigma, UK) for 1 hour at room temperature. Following incubation each tube was washed ×3 in PBS (0.01% tween) (5 minute centrifugation at 1500 rpm). Samples were then incubated with a 1 in 15 dilution of FITC-conjugated goat anti-mouse secondary antibody (Sigma, UK) (samples kept in dark at room temperature). Following incubation each tube was washed ×3 in PBS (0.01% tween) (5 minute centrifugation at 1500 rpm). Samples were resuspended in 0.5 ml of PBS prior to immediate analysis using the Cyan flow cytometer (Dako, UK).
HCT116 cells were stained for CatS expression using a CatS monoclonal antibody as before. Cells were grown on glass coverslips, fixed using ice-cold acetone and incubated with CatS antibody at a 1:100 dilution. Coverslips were rinsed with PBS and incubated with antimouse AlexaFluor® 488 labelled secondary antibody. Coverslips were washed again using PBS, mounted using PermaFluor mounting media and visualised by confocal microscopy.
The presence of Cathepsin S on the cell surface of tumour cells was further confirmed using confocal microscopy. […]

CatS [2] = molecular target: T2, CatS (Homo sapiens, UniProt P25774); assay: fluorimetric assay of CatS proteolytic activity; type: biochemical
T2 sequence (P25774 115-331): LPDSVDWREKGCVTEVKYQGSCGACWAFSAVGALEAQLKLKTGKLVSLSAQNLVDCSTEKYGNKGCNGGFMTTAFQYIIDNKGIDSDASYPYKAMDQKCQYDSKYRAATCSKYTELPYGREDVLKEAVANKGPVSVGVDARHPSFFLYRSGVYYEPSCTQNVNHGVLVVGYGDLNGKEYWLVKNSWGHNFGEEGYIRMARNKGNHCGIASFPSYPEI
Text: The ability of an agent, for example a small molecule or antibody, to inhibit the proteolytic activity of Cathepsin S may be tested using any suitable method. For example a fluorimetric assay may be used. In such an assay, any suitable fluorigenic substrate may be used, for example Cbz-Phe-Arg-AMC. An agent is considered to inhibit the proteolytic activity of Cathepsin S if it has the ability to inhibit its activity by a statistically significant amount. For example, in one embodiment, an agent for use as the Cathepsin S inhibitor is able to inhibit the […] activity by at least 10%, for example at least 25%, 50%, 70%, 80% or 90%, when compared to an appropriate control antibody.
As shown in co-pending PCT application WO2006/109045, the contents of which are incorporated herein by reference, which claims priority from GB0507219.4 and GB0507272.3, this antibody has potent inhibitory activity.
(§1) The F47 Cathepsin S 1C11 1E11 1E4 cell line which is the hybridoma cell line that produces the IE4 antibody has been deposited with the European Collection of Cell Cultures (“ECACC”) under Accession No. 15072905.

[3] = test system: human microvascular endothelial cells (HMECs); assay: Matrigel capillary-like tube formation assay; type: cell-based
Procedure: The effect of the CatS mAb on endothelial cell tube formation was assessed as follows. Two hundred microliter of Matrigel (10 mg/ml) was applied to pre-cooled 48-well plates, incubated for 10 min at 4° C. and then allowed to polymerize for 1 h at 37° C. Cells were suspended in endothelial growth cell medium MV (Promocell), containing 200 nM of the appropriate antibody. Five hundred microliter (1×10^5 cells) were added to each well. As controls, cells were incubated with vehicle-only control medium containing the appropriate volumes of PBS. After 24 h incubation at 37° C. and 5% CO2, cells were viewed using a Nikon Eclipse TE300 microscope.
Using the Matrigel morphogenesis assay described by Grant et al (Cell 1989 Sep. 8; 58 (5): 933-43), capillary-tubule formation assays were performed with human microvascular endothelial cells (HMECs) cultured on Matrigel enabling the endothelial cells form tube-like structures, with invasive sprouts extending from individual cells to form contacts with nearby endothelial cells. FIG. 15a illustrates the results when the HMEC cells were cultured in the presence of two CatS antibodies (1E11 and 1E4) or isotype control.

other cathepsins = assay: binding specificity / cross-reactivity with other cathepsins; settings: in particular those with the greatest homology to CatS
Text: as §1

[4] = test system: HCT116+/+ human colorectal adenocarcinoma xenograft; assay: HCT116+/+ xenograft model, immunohistochemistry of tumour sections; type: in vivo, SCID mice; settings: CatS 1E11+5Fu (IC50) vs Mouse IgG1+5-Fu control
Procedure: Briefly, sections were deparaffinised by passing from xylene to alcohol to running water. Endogenous peroxidase activity was blocked by incubation in 3% H2O2 in methanol for 10 min. Sections were then boiled in citrate buffer, pH6.0, for 22 min. Incubation in 5% normal horse serum blocking solution was carried out for 20 min at room temp. Sections were incubated with primary antibody at 4° C. overnight. Appropriate isotype controls were used at the same dilutions as primary antibodies. […]

[5] = examination of major mouse organs after treatment in xenograft model; type: in vivo, SCID mice
Procedure: 6-8 week old female SCID mice were implanted with 2×10^6 HCT116+/+ human colorectal adenocarcinoma cells into each flank. […] They were mixed with equal volumes of matrigel to give a final concentration of 5×10^6 cells/ml. Mice were randomly separated into treatment groups on day 5 after implantation and treated with various regimes of CatS Mab or Isotype control Mab (10 mg/kg) with/without 5Fu (15 mg/kg daily or 70 mg/kg twice weekly). All drugs were administered through a bolus injection. Animals were sacrificed at various time points and tumours were removed for analysis.
Paraffin embedding of formalin-fixed xenograft/organ tissue samples, section cutting and H&E (haematoxylin and eosin) staining of tissue sections were performed as previously described. Immunostaining was performed using the avidin-horseradish peroxidase method (Vectorlabs ABC Kit).
All major mouse organs were examined for architectural changes following treatment.

rat aortic ring segments = assay: ex vivo rat aortic arch (ring) assay in Matrigel; type: cell-based
Procedure: Male Wistar rats are euthanised and the thoracic aorta is aseptically removed and sectioned into […] thick rings. The rings are washed ten times in sterile medium to remove any bacteria and embedded into Matrigel on 24 well plates. The wells are supplemented with 2 ml of medium and increasing concentrations of antibodies. The plate is incubated for 8 days and post incubation the Matrigel and rings are fixed in 4% PBS buffered paraformaldehyde and stored in PBS. The extent of vessel development is blindly assessed microscopically by an independent investigator and quantified using a calibrated eyepiece graticule (1 mm/100 μm graduation) at 20× magnification (Olympus BX 50). The extent of vessel length, maximum vessel length and number of vessels in each field of view is measured and compared to time matched sham controls and the % inhibition calculated.
To evaluate further the role of CatS in angiogenesis, an ex vivo rat aortic arch assay was performed. Sections of the aorta (1 mm) were cultured within a thin layer of Matrigel in the presence of the inhibitory antibody and appropriate controls. The formation of tube-like vessels from the aorta were monitored and quantified after 7 days by measuring the reduction in the number of vessels, mean vessel length and maximum vessel length compared to controls.

CatS [6] = molecular target: T2, CatS; settings: fluorigenic substrate; shown in co-pending WO2006/109045; cited from earlier work
[7] = test system: PC3 prostate carcinoma cell line; settings: shown in co-pending WO2006/109045; cited from earlier work
[8] = test system: U251mg astrocytoma cell line; settings: shown in co-pending WO2006/109045; cited from earlier work
[9] = test system: HCT116 colorectal carcinoma cell line; settings: shown in co-pending WO2006/109045; cited from earlier work
[10] = test system: MDMB231 breast cancer cell line; settings: shown in co-pending WO2006/109045; cited from earlier work
[11] = test system: MCF 7 breast cancer cell line; settings: shown in co-pending WO2006/109045; cited from earlier work
[12] = repeat experiment, up to 10 μg/ml

T1 sequence (P25774 115-331): as above

B1: 1E11: Cathepsin S inhibitory monoclonal antibody; VH Seq ID No: 7, VL Seq ID No: 8, CDRs Seq ID Nos: 1-6 (antibody, listed as Mus musculus, V domains shown)
VH: VQLQESGGVLVKPGGSLKLSCAASGFAFSSYDMSWVRQTPEKRLEWVAYITTGGVNTYYPDTVKGRFTISRDNAKNTLYLQMSSLKSEDTAMYYCARHSYFDYWGQGTTVTVSS
VL: DVLMTQTPLSLPVSLGDQASISCRSSQSLVHSNGNTYLHWYLQKPGQSPKLLIYKVSNRFSGVPDRFSGSGSGTDFTLKISRVEAEDLGVYFCSQTTHVPPTFGSGTKLEIKR
modifications: VH domain amino acid sequence; VL domain amino acid sequence
With B1 the “increase in fluorescent intensity in comparison to the isotype control” value [1] was 38%, the “ability to inhibit the catalytic activity of CatS” value (CatS [2]) was “can specifically inhibit the activity of CatS” and the “tube formation of HMEC cells on Matrigel” value ([3]; antibody 200 nM, 24 h, vs vehicle-only and isotype control) was “almost completely abolished”. For the same molecule, the “capillary tubule formation in Matrigel assay” value ([3]; summary statement, no concentration given) was “inhibit capillary tubule formation”, the “cross-reactivity with other cathepsins” value (other cathepsins) was “no cross-reactivity with other cathepsins” and the “caspase 3 activity in tumour tissue (anti-cleaved caspase-3 staining)” value [4] was “increase in caspase 3 activity”. For the same molecule, the “architectural / pathological change of major mouse organs” value ([5]; nine-day drug regime CatS 1E11+5Fu (IC50)) was “No signs of pathological change”, the adverse toxic effect ([5]; repeated treatment with 10 mg/kg in combination with chemotherapy) was “no adverse toxic effect” and the “reduction in maximum vessel length” value (rat aortic ring segments; [12]) was 60%. For the same molecule, the “reduction in mean vessel length” value (rat aortic ring segments; [12]) was 60%, the “reduction in total vessel number” value (rat aortic ring segments; [12]) was 70% and the “reduction in maximum vessel length” value (rat aortic ring segments; up to 600 nM) was “greater than 80%”. The “reduction in mean vessel length” value (rat aortic ring segments; up to 600 nM) was “greater than 80%”, the “reduction in total vessel number” value (rat aortic ring segments; up to 600 nM) was “greater than 80%” and the “inhibition of proteolytic activity of CatS” value (CatS [6]) was “inhibits the proteolytic activity of CatS”. The “inhibition of tumour cell invasion” value [7] was “potently inhibit tumour cell invasion”, the “inhibition of tumour cell invasion” value [8] was “potently inhibit tumour cell invasion” and the “inhibition of tumour cell invasion” value [9] was “potently inhibit tumour cell invasion”. For the same molecule, the “inhibition of tumour cell invasion” value [10] was “potently inhibit tumour cell invasion” and the “inhibition of tumour cell invasion” value [11] was “potently inhibit tumour cell invasion”.
